Test results as given in patent US10738094B2, “Peptides and combination of peptides for use in immunotherapy against ovarian cancer and other cancers” (immatics biotechnologies GmbH, priority 2015, dated 2020).

Molecular target: HLA-A*02:01 (Homo sapiens, UniProt P04439, D140Y/D185E/D98H/E176V/E277Q/G131W/G231S/I119V/I121R/I166T/I218V/L300P/L318F/N151K/N90K/P208A/P217A/Q86G/Q94H/R138H/R169H/T345S)
Assay: MHC binding assay (UV-ligand exchange, beta2m ELISA)
Details: binding to HLA-A*02:01 ranged by peptide exchange yield (UV-ligand exchange, β2m ELISA)
Outline: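 Stabilised complexes were quantified via their β2m light chain: 100-fold-diluted monomers bound to streptavidin plates, then HRP anti-β2m at 2 ug/ml for 1 h at 37° C., TMB read at 450 nm. The value is the yield of UV-induced exchange of a photocleavable peptide for the candidate.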

## 575 (YLISQVEGHQV; listed as Homo sapiens) [compound 575]
  Peptide exchange: “+++” (≥50 = +++)

## 589 (KLYPQLPAEI; listed as Homo sapiens) [compound 589]
  Peptide exchange: “+++” (≥50 = +++)

## 33 (VLLSLLEKV; listed as Homo sapiens) [compound 33]
  Peptide exchange: “++” (≥20% = ++)

## 32 (KLDDLTQDLTV; listed as Homo sapiens) [compound 32]
  Peptide exchange: “++” (≥20% = ++)

## 229 (RLPGPLGTV; listed as Homo sapiens) [compound 229]
  Peptide exchange: “++” (≥20% = ++)

## 285 (QLLHVGVTV; listed as Homo sapiens) [compound 285]
  Peptide exchange: “+++” (≥50 = +++)

## 596 (ALLDQTKTLAESAL; listed as Homo sapiens) [compound 596]
  Peptide exchange: “+++” (≥50 = +++)

## 210 (LLLNAVLTV; listed as Homo sapiens) [compound 210]
  Peptide exchange: “++” (≥20% = ++)

## 16 (VLFQGQASL; listed as Homo sapiens) [compound 16]
  Peptide exchange: “+++” (≥50 = +++)

## 309 (GLFDGVPTTA; listed as Homo sapiens) [compound 309]
  Peptide exchange: “+++” (≥50 = +++)

## 196 (YLYSVEIKL; listed as Homo sapiens) [compound 196]
  Peptide exchange: “++++” (≥75% = ++++)

## 493 (GLLGEKTQDLIGV; listed as Homo sapiens) [compound 493]
  Peptide exchange: “+++” (≥50 = +++)

## 562 (YLEELPEKLKL; listed as Homo sapiens) [compound 562]
  Peptide exchange: “+++” (≥50 = +++)

## 354 (LILEGVDTV; listed as Homo sapiens) [compound 354]
  Peptide exchange: “++” (≥20% = ++)

## 361 (ALYELEGTTV; listed as Homo sapiens) [compound 361]
  Peptide exchange: “+++” (≥50 = +++)

## 623 (YLVEDIQHI; listed as Homo sapiens) [compound 623]
  Peptide exchange: “+++” (≥50 = +++)

## 372 (TMLLNIPLV; listed as Homo sapiens) [compound 372]
  Peptide exchange: “++” (≥20% = ++)

## 215 (QLINHLHAV; listed as Homo sapiens) [compound 215]
  Peptide exchange: “+++” (≥50 = +++)

## 451 (LLLLDTVTMQV; listed as Homo sapiens) [compound 451]
  Peptide exchange: “++” (≥20% = ++)

## 246 (LLWEVVSQL; listed as Homo sapiens) [compound 246]
  Peptide exchange: “+++” (≥50 = +++)

## 526 (RLAEVGQYEQV; listed as Homo sapiens) [compound 526]
  Peptide exchange: “++” (≥20% = ++)

## 490 (FLLQHVQEL; listed as Homo sapiens) [compound 490]
  Peptide exchange: “+++” (≥50 = +++)

## 216 (NLWEDPYYL; listed as Homo sapiens) [compound 216]
  Peptide exchange: “+++” (≥50 = +++)

## 380 (TLIEDEIATI; listed as Homo sapiens) [compound 380]
  Peptide exchange: “++” (≥20% = ++)

## 87 (ALPEAPAPLLPHIT; listed as Homo sapiens) [compound 87]
  Peptide exchange: “++” (≥20% = ++)

## 439 (YLLQEIYGI; listed as Homo sapiens) [compound 439]
  Peptide exchange: “+++” (≥50 = +++)

## 430 (HLYSSIEHLTT; listed as Homo sapiens) [compound 430]
  Peptide exchange: “+++” (≥50 = +++)

## 265 (LLFGGTKTV; listed as Homo sapiens) [compound 265]
  Peptide exchange: “++” (≥20% = ++)

## 90 (TLLQIIETV; listed as Homo sapiens) [compound 90]
  Peptide exchange: “+++” (≥50 = +++)

## 82 (FLSSVTYNL; listed as Homo sapiens) [compound 82]
  Peptide exchange: “+++” (≥50 = +++)

## 412 (YLDDLNEGVYI; listed as Homo sapiens) [compound 412]
  Peptide exchange: “++” (≥20% = ++)

## 305 (SIANFSEFYV; listed as Homo sapiens) [compound 305]
  Peptide exchange: “++++” (≥75% = ++++)

## 516 (AVGPASILKEV; listed as Homo sapiens) [compound 516]
  Peptide exchange: “++” (≥20% = ++)

## 585 (ALWDLAADKQTL; listed as Homo sapiens) [compound 585]
  Peptide exchange: “++++” (≥75% = ++++)

## 230 (ILVDWLVEV; listed as Homo sapiens) [compound 230]
  Peptide exchange: “+” (≥10% = +)

## 517 (LLMPIPEGLTL; listed as Homo sapiens) [compound 517]
  Peptide exchange: “+++” (≥50 = +++)

## 332 (YLISELEAA; listed as Homo sapiens) [compound 332]
  Peptide exchange: “+++” (≥50 = +++)

## 243 (LLLNELPSV; listed as Homo sapiens) [compound 243]
  Peptide exchange: “+++” (≥50 = +++)

## 593 (GLPRFGIEMV; listed as Homo sapiens) [compound 593]
  Peptide exchange: “+++” (≥50 = +++)

## 528 (SVAEGRALMSV; listed as Homo sapiens) [compound 528]
  Peptide exchange: “+++” (≥50 = +++)

## 434 (KVSNSGITRV; listed as Homo sapiens) [compound 434]
  Peptide exchange: “++” (≥20% = ++)

## 583 (ILANDGVLLAA; listed as Homo sapiens) [compound 583]
  Peptide exchange: “+++” (≥50 = +++)

## 14 (AAYGGLNEKSFV; listed as Homo sapiens) [compound 14]
  Peptide exchange: “+++” (≥50 = +++)

## 498 (KLWTGGLDNTV; listed as Homo sapiens) [compound 498]
  Peptide exchange: “+++” (≥50 = +++)

## 269 (RVLEVGALQAV; listed as Homo sapiens) [compound 269]
  Peptide exchange: “++” (≥20% = ++)

## 307 (ALPVSLPQI; listed as Homo sapiens) [compound 307]
  Peptide exchange: “+++” (≥50 = +++)

## 158 (KLFDVDEDGYI; listed as Homo sapiens) [compound 158]
  Peptide exchange: “+++” (≥50 = +++)

## 272 (ALGNTVPAV; listed as Homo sapiens) [compound 272]
  Peptide exchange: “+++” (≥50 = +++)

## 573 (ILVANAIVGV; listed as Homo sapiens) [compound 573]
  Peptide exchange: “+++” (≥50 = +++)

## 187 (RQISIRGIVGV; listed as Homo sapiens) [compound 187]
  Peptide exchange: “+++” (≥50 = +++)

## 255 (VLASYNLTV; listed as Homo sapiens) [compound 255]
  Peptide exchange: “+++” (≥50 = +++)

## 359 (YLLPESVDL; listed as Homo sapiens) [compound 359]
  Peptide exchange: “+++” (≥50 = +++)

## 138 (YQYPRAILSV; listed as Homo sapiens) [compound 138]
  Peptide exchange: “+++” (≥50 = +++)

## 76 (ILIDSIYKV; listed as Homo sapiens) [compound 76]
  Peptide exchange: “+++” (≥50 = +++)

## 564 (TVTNAVVTV; listed as Homo sapiens) [compound 564]
  Peptide exchange: “+++” (≥50 = +++)

## 550 (FLYDEIEAEVNL; listed as Homo sapiens) [compound 550]
  Peptide exchange: “+++” (≥50 = +++)

## 635 (SLDSTLHAV; listed as Homo sapiens) [compound 635]
  Peptide exchange: “+++” (≥50 = +++)

## 547 (TLDITPHTV; listed as Homo sapiens) [compound 547]
  Peptide exchange: “+++” (≥50 = +++)

## 325 (FIMPATVADATAV; listed as Homo sapiens) [compound 325]
  Peptide exchange: “+++” (≥50 = +++)

## 350 (ALLDVTHSELTV; listed as Homo sapiens) [compound 350]
  Peptide exchange: “+++” (≥50 = +++)

## 395 (ALALGGIAVV; listed as Homo sapiens) [compound 395]
  Peptide exchange: “++++” (≥75% = ++++)

## 312 (IISDLTIAL; listed as Homo sapiens) [compound 312]
  Peptide exchange: “+++” (≥50 = +++)

## 189 (ALQRKLPYV; listed as Homo sapiens) [compound 189]
  Peptide exchange: “+++” (≥50 = +++)

## 515 (LLQELVLFL; listed as Homo sapiens) [compound 515]
  Peptide exchange: “+++” (≥50 = +++)

## 185 (FLIDDKGYTL; listed as Homo sapiens) [compound 185]
  Peptide exchange: “++” (≥20% = ++)

## 95 (SVIPQIQKV; listed as Homo sapiens) [compound 95]
  Peptide exchange: “+++” (≥50 = +++)

## 497 (GLLEKLTAI; listed as Homo sapiens) [compound 497]
  Peptide exchange: “+++” (≥50 = +++)

## 385 (SLLEQGLVEA; listed as Homo sapiens) [compound 385]
  Peptide exchange: “++” (≥20% = ++)

## 121 (GVVDPRAISVL; listed as Homo sapiens) [compound 121]
  Peptide exchange: “++” (≥20% = ++)

## 204 (KIAENVEEV; listed as Homo sapiens) [compound 204]
  Peptide exchange: “++” (≥20% = ++)

## 281 (ILRESTEEL; listed as Homo sapiens) [compound 281]
  Peptide exchange: “+++” (≥50 = +++)

## 548 (ALWENPESGEL; listed as Homo sapiens) [compound 548]
  Peptide exchange: “++” (≥20% = ++)

## 249 (LLDGFLVNV; listed as Homo sapiens) [compound 249]
  Peptide exchange: “+++” (≥50 = +++)

## 214 (FLLDLDPLLL; listed as Homo sapiens) [compound 214]
  Peptide exchange: “+++” (≥50 = +++)

## 117 (ILPDGEDFLAV; listed as Homo sapiens) [compound 117]
  Peptide exchange: “+++” (≥50 = +++)

## 346 (LLDSKVPSV; listed as Homo sapiens) [compound 346]
  Peptide exchange: “+++” (≥50 = +++)

## 283 (ALYIGDGYVIHLA; listed as Homo sapiens) [compound 283]
  Peptide exchange: “+++” (≥50 = +++)

## 25 (FLPDEPYIKV; listed as Homo sapiens) [compound 25]
  Peptide exchange: “+++” (≥50 = +++)
